In this test the target is runt homology domain (RHD) of hRUNX1c (human). The test is described as follows: BLI; biotinylated RHD loaded on streptavidin biosensors; CBFβ, CBFβ-SMMHC or mutants in solution at varying concentrations (50-600 nM); Octet RED96e; 20 mM Tris-HCl pH 8.0, 100 mM KCl, 1 mM EDTA, 1 mM DTT, 0.02% Tween 20; global fit.

pKd: −log10 of the molar value.

In the case of CBFβ-SMMHC (from UniProt Q13951 1-165), the negative-log Kd (pKd) is 7.89.

“core-binding factor β (CBFβ) (from UniProt Q13951-2 1-187) (natural protein)” showed a negative logarithm of the Kd (pKd) of 7.19.

Values taken from publication PMC12483565, “CBFβ-SMMHC–driven leukemogenesis requires enhanced RUNX1-DNA binding affinity in mice”.
